Data on one substance can be found in patent WO2023219147A1.

In this assay the target is human CCR8 (human). The assay can be described thus: flow cytometry on CD4-gated tumor-infiltrating cells of ovarian cancer; APC-labeled L263G8 2 ug/mL. For orientation: A flow cytometer gives signals particle by particle.

The substance “anti-human CCR8 antibody L263G8 (BioLegend)” registered a positive rate of the FoxP3-positive CCR8-positive fraction of 46.6%.
